# Results as given in paper doi:10.1101/2025.06.10.658867 (bioRxiv, 2025).
# B1: intracellularly GFP-tagged Siglec-10 R127A in THP-1 cells (receptor, human, UniProt Q96LC7 17-697, looked up)
# chain: MDGRFWIRVQESVMVPEGLCISVPCSFSYPRQDWTGSTPAYGYWFKAVTETTKGAPVATNHQSREVEMSTRGRFQLTGDPAKGNCSLVIRDAQMQDESQYFFRVERGSYVAYNFMNDGFFLKVTALTQKPDVYIPETLEPGQPVTVICVFNWAFEECPPPSFSWTGAALSSQGTKPTTSHFSVLSFTPRPQDHNTDLTCHVDFSRKGVSAQRTVRLRVAYAPRDLVISISRDNTPALEPQPQGNVPYLEAQKGQFLRLLCAADSQPPATLSWVLQNRVLSSSHPWGPRPLGLELPGVKAGDSGRYTCRAENRLGSQQRALDLSVQYPPENLRVMVSQANRTVLENLGNGTSLPVLEGQSLCLVCVTHSSPPARLSWTQRGQVLSPSQPSDPGVLELPRVQVEHEGEFTCHARHPLGSQHVSLSLSVHYSPKLLGPSCSWEAEGLHCSCSSQASPAPSLRWWLGEELLEGNSSQDSFEVTPSSAGPWANSSLSLHGGLSSGLRLRCEAWNVHGAQSGSILQLPDKKGLISTAFSNGAFLGIGITALLFLCLALIIMKILPKRRTQTETPRPRFSRHSTILDYINVVPTAGPLAQKRNQKATPNSPRTPLPPGAPSPESKKNQKKQYQLPSFPEPKSSTQAPESQESQEELHYATLNFPGVRPRPEARMPKGTQADYAEVKFQ
# B2: intracellularly GFP-tagged Siglec-10 WT in THP-1 cells (receptor, human, UniProt Q96LC7 17-697, looked up)
# chain: MDGRFWIRVQESVMVPEGLCISVPCSFSYPRQDWTGSTPAYGYWFKAVTETTKGAPVATNHQSREVEMSTRGRFQLTGDPAKGNCSLVIRDAQMQDESQYFFRVERGSYVRYNFMNDGFFLKVTALTQKPDVYIPETLEPGQPVTVICVFNWAFEECPPPSFSWTGAALSSQGTKPTTSHFSVLSFTPRPQDHNTDLTCHVDFSRKGVSAQRTVRLRVAYAPRDLVISISRDNTPALEPQPQGNVPYLEAQKGQFLRLLCAADSQPPATLSWVLQNRVLSSSHPWGPRPLGLELPGVKAGDSGRYTCRAENRLGSQQRALDLSVQYPPENLRVMVSQANRTVLENLGNGTSLPVLEGQSLCLVCVTHSSPPARLSWTQRGQVLSPSQPSDPGVLELPRVQVEHEGEFTCHARHPLGSQHVSLSLSVHYSPKLLGPSCSWEAEGLHCSCSSQASPAPSLRWWLGEELLEGNSSQDSFEVTPSSAGPWANSSLSLHGGLSSGLRLRCEAWNVHGAQSGSILQLPDKKGLISTAFSNGAFLGIGITALLFLCLALIIMKILPKRRTQTETPRPRFSRHSTILDYINVVPTAGPLAQKRNQKATPNSPRTPLPPGAPSPESKKNQKKQYQLPSFPEPKSSTQAPESQESQEELHYATLNFPGVRPRPEARMPKGTQADYAEVKFQ
# B3: intracellularly GFP-tagged Siglec-10 R119A in THP-1 cells (receptor, human, UniProt Q96LC7 17-697, looked up)
# chain: MDGRFWIRVQESVMVPEGLCISVPCSFSYPRQDWTGSTPAYGYWFKAVTETTKGAPVATNHQSREVEMSTRGRFQLTGDPAKGNCSLVIRDAQMQDESQYFFAVERGSYVRYNFMNDGFFLKVTALTQKPDVYIPETLEPGQPVTVICVFNWAFEECPPPSFSWTGAALSSQGTKPTTSHFSVLSFTPRPQDHNTDLTCHVDFSRKGVSAQRTVRLRVAYAPRDLVISISRDNTPALEPQPQGNVPYLEAQKGQFLRLLCAADSQPPATLSWVLQNRVLSSSHPWGPRPLGLELPGVKAGDSGRYTCRAENRLGSQQRALDLSVQYPPENLRVMVSQANRTVLENLGNGTSLPVLEGQSLCLVCVTHSSPPARLSWTQRGQVLSPSQPSDPGVLELPRVQVEHEGEFTCHARHPLGSQHVSLSLSVHYSPKLLGPSCSWEAEGLHCSCSSQASPAPSLRWWLGEELLEGNSSQDSFEVTPSSAGPWANSSLSLHGGLSSGLRLRCEAWNVHGAQSGSILQLPDKKGLISTAFSNGAFLGIGITALLFLCLALIIMKILPKRRTQTETPRPRFSRHSTILDYINVVPTAGPLAQKRNQKATPNSPRTPLPPGAPSPESKKNQKKQYQLPSFPEPKSSTQAPESQESQEELHYATLNFPGVRPRPEARMPKGTQADYAEVKFQ
# B4: Fab portion of the anti-Siglec-10 mAb S10A (S10A Fab) (Fab, V domains shown)
# VH: QIQLQQSGAELEKPGASVKMSCKASGYTFTSYWMHWVKQRPGQGLEWIGYINPDTDSTEYNQKFRDKATLTADKSSSTAYMQLSSLTSEDSAVYYCARPYYRYAGYAMDYWGQGTSVTVSS
# VL: DIKMTQSPSSMYASLGERVTITCKASQDINSYLSWFQQKPGKSPKTLIYRANRLVDGVPSRFSGSGSGQVYSLTISSLEYEDLGIYYCLQYDEFPWTFGGGTKLEIK
# How the values were obtained:
# [1] = target: the molecule itself; assay: DNA-PAINT super-resolution microscopy with nearest-neighbour distance analysis
# [2] = target: Siglec-10_(d1-d2) WT fused to human IgG1 Fc (Siglec-10Fc WT) (human, UniProt Q96LC7); assay: BLI
Binder,mean percent dimers after tunicamycin [1],mean percent dimers before tunicamycin [1],percent dimers [1],Kd [2]
B1,69%,59%,47%,
B2,50%,61%,67%,
B3,69%,72%,69%,
B4,,,,1.1 nM
